This note sets out measurements from patent US9688764B2, “Methods of treating breast cancer by administering anti-human prolactin receptor (PRLR) antibodies” (REGENERON PHARMACEUTICALS, INC., priority 2013, dated 2017).

One assay has as its system HEK293 (293) cells. The experiment in a line: Cell viability (cell kill) assay. Format: cell-based. From the text: (§1) PRLR-overexpressing cells, including HEK293, PC3, MCF7 and NCI-N87, were generated to assess the ability of anti-PRLR conjugated antibodies to reduce cell viability. For comparative purposes, PC3 and T47D cells with overexpressed ErbB2 were also generated, as well as an MCF7 cell line over-expressing both hPRLR and hErbB2. Briefly, Lipofectamine® 2000-mediated transfection methodology was utilized to generate HEK293 cells expressing human PRLR (HEK293/hPRLR) or human ErbB2 (HEK293/hErbB2). Lipofectamine LTX with Plus Reagent was used to generate PC3 cells expressing human PRLR (PC3/hPRLR) or human ErbB2 (PC3/hErbB2). Lentiviral-mediated transduction was utilized to generate MCF7 cells expressing human PRLR (MCF7/hPRLR), NCI-N87 cells expressing human PRLR (NCI-N87/hPRLR), T47D cells over-expressing human ErbB2 (T47D/hErbB2), and MCF7 cells expressing both human PRLR and human ErbB2 (MCF7/hPRLR/hErbB2). All lines were selected for at least two weeks in complete growth media plus appropriate selection reagents. Stably expressing populations were enriched for PRLR expression via FACS using the anti PRLR antibody Control I.
(§2) Next, the ability of anti-PRLR-DM1 antibody-drug conjugates (i.e., anti-PRLR antibodies conjugated to DM1 via a non-cleavable linker [SMCC]) to reduce cell viability was determined using in vitro cell based assays. Cells were seeded in PDL-coated 96 well plates at 1500 to 10000 cells per well in complete growth media and allowed to grow overnight. For cell viability curves, ADCs or free DM1 (as the methyl disulfide derivative DM1-SMe) were added to the cells at final concentrations ranging from 500 nM to 5 pM and incubated for 3 days. The 293, PC3 and T47D cells were incubated with CCK8 (Dojindo, Rockville, Md.) for the final 1-3 hours and the absorbance at 450 nm (OD450) was determined on a Flexstation3 (Molecular Devices, Sunnyvale, Calif.). MCF7 cells were treated with Hoechst 33342 nuclear stain while being fixed with 4% formaldehyde. Images were acquired on the ImageXpress micro XL (Molecular Devices, Sunnyvale, Calif.) and nuclear counts were determined via Columbus image analysis software (Perkin Elmer, Shelton, Conn.). Background OD450 values (PC3, 293, and T47D) or nuclear counts (MCF7) from digitonin (40 nM) treated cells was subtracted from all wells and viability was expressed as a percentage of the untreated controls. IC50 values were determined from a four-parameter logistic equation over a 10-point response curve (GraphPad Prism).

The test system of the next assay is MCF7 (MCF7/ATCC) cells. Nature of the assay: Cell viability (cell kill) assay, nuclear counts. Format: cell-based. Conditions: MCF7/ATCC.
From the text: as §1, §2
(§3) Finally, the potency of anti-PRLR antibodies conjugated to DM1 via the non-cleavable linker SMCC was compared to the cell killing potency of anti-PRLR antibodies conjugated to MMAE via the cleavable linker: mc-vc-PAB (available from Concortis, San Diego, Calif.). Cells used in this experiment were PC3, PC3/hPRLR, MCF7/ATCC and MCF7/PRLR.
(§4) Additional toxins (DM4, MeNHC3-May, and MMD) conjugated to anti-PRLR antibodies were also tested in T47D and MCF7/hPRLR cell lines, and results are summarized in Tables 19 (293 and T47D cell killing) and 20 (MCF7/ATCC and MCF7/PRLR cell killing). (ND=not detected).

For assay [1], the system named is MCF7/hPRLR (MCF7/PRLR) cells. The experiment in a line: Cell viability (cell kill) assay, nuclear counts. Type of assay: cell-based, human.
From the text: as §1, §2, §3, §4

In another assay the test system is T47D cells. The experiment in a line: Cell viability (cell kill) assay. The settings on record: T47D; for IC50: read-out: IC50. Type of assay: cell-based. How it is done: as §2
Additionally, the impact of the PRLR ligand, PRL, on PRLR-SMCC-DM1 cell kill in T47D cells was assessed. T47D cells were incubated simultaneously with PRL (15 nM) and either a non-blocking anti PRLR antibody (H1H6782P) or a receptor blocking antibody (H1H6958N2).
as §4

In the next assay the test system is PC3/hPRLR cells. The experiment in a line: Cell viability (cell kill) assay. Format: cell-based, human. The settings on record: PC3/hPRLR; Table 18.
From the text: as §1, §2, §3

Where two headings read alike, the source gives them in different places.

Take `COc1cc2cc(c1Cl)N(C)C(=O)CC(OC(=O)C(C)N(C)C(=O)CCSSC)C1(C)OC1C(C)C1CC(O)(NC(=O)O1)C(OC)C=CC=C(C)C2` (centres unmarked) [Free DM1 (Me-SS-May)]: the “% Kill” value in the assay with HEK293 (293) cells (293, Table 19) is on record as 95%; in the assay on MCF7 (MCF7/ATCC) cells (Table 20) it was 80%; in assay [1] (Table 20) it was 80%; with T47D cells (Table 19) it was 100%. For the same molecule, the half-inhibitory concentration (IC50) was 1.2 nM with HEK293 (293) cells (293, Table 19); 1.3 nM in the assay on MCF7 (MCF7/ATCC) cells (Table 20); 0.8 nM in assay [1] (Table 20); 1.5 nM in the assay on T47D cells (Table 19).

B1: H1H6958N2-SPDB-DM4 (conjugate)
VH: QVQLVESGGGVVQPGRSLRLSCGASGFTFRNYGMQWVRQGPGKGLEWVTLISFDGNDKYYADSVKGRFTISRDNSKNTLFLQMNSLRTEDTAVYYCARGGDFDYWGQGTLVTVSS
VL: DIQMTQSPSSLSASVGDRVTITCRASQDIRKDLGWYQQKPGKAPKRLIYAASSLHSGVPSRFSGSGSGTEFTLTISSLQPEDFATYYCLQHNSYPMYTFGQGTKLEIK
On to B1, for which the “% Kill” value in the assay on MCF7 (MCF7/ATCC) cells (Table 20) was determined as 80%; in assay [1] (Table 20), 90%; in the assay on T47D cells (Table 19) it was 100%. The figures for the IC50 (in the assay with MCF7 (MCF7/ATCC) cells (Table 20); in assay [1] (Table 20); in the assay with T47D cells (Table 19)) were 25 nM, 0.8 nM and 1 nM, respectively.

B2: H1H6782P-SMCC-DM1 (conjugate)
VH: EVQLVESGGGLVQPGRSLRLSCAASGFTFDDYAMHWVRQAPGKGLEWVSGIIWNSGHIGYGDSVKGRFTISRDNAKKSLYLQMNSLRAEDTALYYCARDSGRYQSYFDYWGQGTLVTVSS
VL: DIQMTQSPSTLSASVGDRVTITCRASHIISSWLAWYQQKPGKAPKVLIFKASSLESGVPSRFSGSGSGTEFTLTISSLQPDDFATYYCQQYNTYSRTFGQGTKVEIK
As for B2, the “% Kill” value with HEK293 (293) cells (293, Table 19) is listed as 80%; with MCF7 (MCF7/ATCC) cells (Table 20), 70%; in assay [1] (Table 20) it was 80%; with T47D cells (Table 19) it was 100%. In addition, the 50% inhibitory concentration (IC50) worked out at 120 nM in the assay with HEK293 (293) cells (293, Table 19); 70 nM in the assay with HEK293 (293) cells (HEK293, Table 13, + 15 nM PRL); 90 nM in the assay with HEK293 (293) cells (HEK293, Table 13, without PRL); 250 nM with MCF7 (MCF7/ATCC) cells (Table 20); 0.3 nM in assay [1] (Table 20); 2 nM with T47D cells (Table 13, + 15 nM PRL). The half-inhibitory concentration (IC50) in the assay on T47D cells (Table 13, without PRL) came out at 1 nM; with T47D cells (Table 19), 3 nM.

B3: H1H6953N-mc-VC-PAB-MMAE (conjugate)
VH: EVQLLESGGGLVQPGGTLRLSCAASGFTFSAYAMSWVRQAPGKGLEWVSSINVRAGDTYYADSVKGRFTISRDNSKNTLFLLMNSLRAEDTAAYYCAKARYSSNWGFDFWGQGTLVTVSS
VL: DIVMTQSPDSLTVSLGARTTINCQSSQTILHSSNNHNYLAWYQQKPGLPPKLLIYWSSTRESGVPDRFSGSGSGTDFTLTISSLQAEDVAIYYCQQYSNTPYTFGQGTKLEIN
Turning to B3, the “% Kill” value in the assay with PC3/hPRLR cells came out at 80%; with MCF7 (MCF7/ATCC) cells (Table 18), 42%; with MCF7 (MCF7/ATCC) cells (Table 20), 40%; in assay [1] (Table 18) it was 85%; in assay [1] (Table 20) it was 85%; with T47D cells (Table 19), 80%. The IC50 worked out at 0.2 nM in the assay on PC3/hPRLR cells; 150 nM with MCF7 (MCF7/ATCC) cells (Table 18); 150 nM in the assay on MCF7 (MCF7/ATCC) cells (Table 20); 0.1 nM in assay [1] (Table 18); 0.1 nM in assay [1] (Table 20); 1 nM in the assay on T47D cells (Table 19).

B4: H1H6953N-mc-VC-PAB-MeNHC3-May (conjugate)
VH: EVQLLESGGGLVQPGGTLRLSCAASGFTFSAYAMSWVRQAPGKGLEWVSSINVRAGDTYYADSVKGRFTISRDNSKNTLFLLMNSLRAEDTAAYYCAKARYSSNWGFDFWGQGTLVTVSS
VL: DIVMTQSPDSLTVSLGARTTINCQSSQTILHSSNNHNYLAWYQQKPGLPPKLLIYWSSTRESGVPDRFSGSGSGTDFTLTISSLQAEDVAIYYCQQYSNTPYTFGQGTKLEIN
In the case of B4, the “% Kill” value with MCF7 (MCF7/ATCC) cells (Table 20) is listed as 60%; in assay [1] (Table 20) it was 80%; in the assay on T47D cells (Table 19), 90%. Besides, the half-maximal inhibitory concentration (IC50) stood at 150 nM with MCF7 (MCF7/ATCC) cells (Table 20), 0.2 nM in assay [1] (Table 20) and 1 nM in the assay with T47D cells (Table 19).

What is called IC50 is the concentration that inhibits the measured activity by half.
